T1: C1-NPs: fluorescein-conjugated MMP substrate peptide C1 (FAM-sk-PLGLEEA-GC) coupled to iron oxide nanoparticles (not fully specified)
T1 chain: SKPLGLEEAGC

T2: S2: Biotin-CGPVPLSLVMK(Cy7)eGvndneeGffsar-NH2
T2 chain: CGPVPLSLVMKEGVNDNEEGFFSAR

T3: alternate substrate/reporter peptide eGvndneeGffsarKsRLVGEGC (second substrate RLVGEGC), unmodified
T3 chain: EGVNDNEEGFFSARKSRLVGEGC

T4: alternate substrate/reporter peptide eGvndneeGffsarKsRLVGEGC veiled with DMNPE
T4 chain: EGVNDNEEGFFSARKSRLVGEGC

B1: recombinant MMP7 (protein)
chain: YSLFPNSPKWTSKVVTYRIVSYTRDLPHITVDRLVSKALNMWGKEIPLHFRKVVWGTADIMIGFARGAHGDSYPFDGPGNTLAHAFAPGTGLGGDAHFDEDERWTDGSSLGINFLYAATHELGHSLGMGHSSDPNAVMYPTYGNGDPQNFKLSQDDIKGIQKLYGKRSNSRKK
B2: plasmin (protein)
chain: KVYLSECKTGNGKNYRGTMSKTKNGITCQKWSSTSPHRPRFSPATHPSEGLEENYCRNPDNDPQGPWCYTTDPEKRYDYCDILECEEECMHCSGENYDGKISKTMSGLECQAWDSQSPHAHGYIPSKFPNKNLKKNYCRNPDRELRPWCFTTDPNKRWELCDIPRCTTPPPSSGPTYQCLKGTGENYRGNVAVTVSGHTCQHWSAQTPHTHNRTPENFPCKNLDENYCRNPDGKRAPWCHTTNSQVRWEYCKIPSCDSSPVSTEQLAPTAPPELTPVVQDCYHGDGQSYRGTSSTTTTGKKCQSWSSMTPHRHQKTPENYPNAGLTMNYCRNPDADKGPWCFTTDPSVRWEYCNLKKCSGTEASVVAPPPVVLLPDVETPSEEDCMFGNGKGYRGKRATTVTGTPCQDWAAQEPHRHSIFTPETNPRAGLEKNYCRNPDGDVGGPWCYTTNPRKLYDYCDVPQCAAPSFDCGKPQVEPKKCPGRVVGGCVAHPHSWPWQVSLRTRFGMHFCGGTLISPEWVLTAAHCLEKSPRPSSYKVILGAHQEVNLEPHVQEIEVSRLFLEPTRKDIALLKLSSPAVITDKVIPACLPSPNYVVADRTECFITGWGETQGTFGAGLLKEAQLPVIENKVCNRYEFLNGRVQSTELCAGHLAGGTDSCQGDSGGPLVCFEKDKYILQGVTSWGLGCARPNKPGVYVRVSRFVTWIEGVMRNN
B3: recombinant MMP1 (protein)
chain: FVLTEGNPRWEQTHLTYRIENYTPDLPRADVDHAIEKAFQLWSNVTPLTFTKVSEGQADIMISFVRGDHRDNSPFDGPGGNLAHAFQPGPGIGGDAHFDEDERWTNNFREYNLHRVAAHELGHSLGLSHSTDIGALMYPSYTFSGDVQLAQDDIDGIQAIYGRSQNPVQ

How the values were obtained:
[1] = molecular target: T1, C1-NPs: fluorescein-conjugated MMP …
[2] = molecular target: T2, S2: …
[3] = molecular target: T3, alternate substrate/reporter peptide …
[4] = molecular target: T4, alternate substrate/reporter peptide …

Protein	proteolysis (fluorescence dequenching) [1]	relative proteolysis (Cy7 signal after streptavidin depletion of uncleaved peptide) [2]	proteolysis [3]	proteolysis [4]
B1	significantly cleaved by MMP13, 7, 1, and 9	cleaved efficiently by MMP7 and MMP19		
B2			proteolysis by plasmin	reduced proteolysis by plasmin, which was recovered by UV exposure
B3	significantly cleaved by MMP13, 7, 1, and 9			
